What all share (assay): binding, other
Experiment [1] addresses T1, SAGE1 peptide on HLA (human).
T1 peptide: TVLPGLTYL

Experiment [2] concerns the target T2, RLN1 peptide on HLA (human).
T2 peptide: LLLNQFSRA

A further experiment concerns the target T3, PAGE2 peptide on HLA (human).
T3 peptide: IMPTFDLTKV

The target of a further experiment is T4, PAEP peptide on HLA (human).
T4 peptide: AMATNNISL

The next experiment deals with T5, PAGE5 peptide on HLA (human).
T5 peptide: TLPTFDPTKV

Experiment [3] addresses T6, RLN1 peptide on HLA (human).
T6 peptide: FIANLPPELKA

Experiment [4] has as its target T7, SAGE1 peptide on HLA (human).
T7 peptide: GLYSTVPHNV

Experiment [5] concerns the target T8, SAGE1 peptide on HLA (human).
T8 peptide: VLIQQLEKA

The values below come from US20230346885A1 (published 2023).

B1: TCR of SEQ ID NOs 539 and 540 (TCR, V domains shown)
Valpha: KQEVTQIPAALSVPEGENLVLNCSFTDSAIYNLQWFRQDPGKGLTSLLLIQSSQREQTSGRLNASLDKSSGRSTLYIAASQPGDSATYLCAVRVTGANNLFFGTGTRLTVIP
Vbeta: NAGVTQTPKFQVLKTGQSMTLQCAQDMNHEYMSWYRQDPGMGLRLIHYSVGAGITDQGEVPNGYNVSRLNKREFSLRLESAAPSQTSVYFCASRPVGGDYTGELFFGEGSRLTVL
B1: the binding result with SAGE1 peptide on HLA [1] was “recognises”.

B2: TCR of SEQ ID NOs 531 and 532 (TCR, V domains shown)
Valpha: KQEVTQIPAALSVPEGENLVLNCSFTDSAIYNLQWFRQDPGKGLTSLLLIQSSQREQTSGRLNASLDKSSGRSTLYIAASQPGDSATYLCAVLSNFGNEKLTFGTGTRLTIIP
Vbeta: NAGVTQTPKFRILKIGQSMTLQCTQDMNHNYMYWYRQDPGMGLKLIYYSVGAGITDKGEVPNGYNVSRSTTEDFPLRLLSAAPSQTSVYFCASTREAGLDYGYTFGSGTRLTVV
Take B2: the binding result with RLN1 peptide on HLA [2] is given as “recognises”.

B3: TCR of SEQ ID NOs 485 and 486 (TCR, V domains shown)
Valpha: KQEVTQIPAALSVPEGENLVLNCSFTDSAIYNLQWFRQDPGKGLTSLLLIQSSQREQTSGRLNASLDKSSGRSTLYIAASQPGDSATYLCAVRLRGSARQLTFGSGTQLTVLP
Vbeta: NAGVTQTPKFRVLKTGQSMTLLCAQDMNHEYMYWYRQDPGMGLRLIHYSVGEGTTAKGEVPDGYNVSRLKKQNFLLGLESAAPSQTSVYFCASSYSIEFTEAFFGQGTRLTVV
With B3, in the experiment with PAGE2 peptide on HLA, the binding result is on record as “recognises”.

B4: TCR of SEQ ID NOs 527 and 528 (TCR, V domains shown)
Valpha: KQEVTQIPAALSVPEGENLVLNCSFTDSAIYNLQWFRQDPGKGLTSLLLIQSSQREQTSGRLNASLDKSSGRSTLYIAASQPGDSATYLCAVRPSGSARQLTFGSGTQLTVLP
Vbeta: NAGVTQTPKFQVLKTGQSMTLQCAQDMNHEYMSWYRQDPGMGLRLIHYSVGAGITDQGEVPNGYNVSRSTTEDFPLRLLSAAPSQTSVYFCASSYGVYTEAFFGQGTRLTVV
For the molecule B4, in the experiment with RLN1 peptide on HLA [2], the binding result is reported as “recognises”.

B5: TCR of SEQ ID NOs 487 and 488 (TCR, V domains shown)
Valpha: KQEVTQIPAALSVPEGENLVLNCSFTDSAIYNLQWFRQDPGKGLTSLLLIQSSQREQTSGRLNASLDKSSGRSTLYIAASQPGDSATYLCALGYRGSARQLTFGSGTQLTVLP
Vbeta: NAGVTQTPKFRVLKTGQSMTLLCAQDMNHEYMYWYRQDPGMGLRLIHYSVGEGTTAKGEVPDGYNVSRLNKREFSLRLESAAPSQTSVYFCASSVGYPGELFFGEGSRLTVL
With B5, the binding result in the experiment with PAGE2 peptide on HLA is reported as “recognises”.

B6: TCR of SEQ ID NOs 465 and 466 (TCR, V domains shown)
Valpha: KQEVTQIPAALSVPEGENLVLNCSFTDSAIYNLQWFRQDPGKGLTSLLLIQSSQREQTSGRLNASLDKSSGRSTLYIAASQPGDSATYLCAVRSYNQFYFGTGTSLTVIP
Vbeta: NAGVTQTPKFQVLKTGQSMTLQCAQDMNHEYMSWYRQDPGMGLRLIHYSVGAGITDQGEVPNGYNVSRSTTEDFPLRLLSAAPSQTSVYFCASSPGGPSTEAFFGQGTRLTVV
Take B6: in the experiment with PAEP peptide on HLA, the binding result was “recognises”.

B7: TCR of SEQ ID NOs 493 and 494 (TCR, V domains shown)
Valpha: KQEVTQIPAALSVPEGENLVLNCSFTDSAIYNLQWFRQDPGKGLTSLLLIQSSQREQTSGRLNASLDKSSGRSTLYIAASQPGDSATYLCAVGNSGGYQKVTFGTGTKLQVIP
Vbeta: NAGVTQTPKFQVLKTGQSMTLQCAQDMNHEYMSWYRQDPGMGLRLIHYSVGAGITDQGEVPNGYNVSRSTTEDFPLRLLSAAPSQTSVYFCASSYSTGSYEQYFGPGTRLTVT
As for B7, the binding result in the experiment with PAGE5 peptide on HLA is on record as “recognises”.

B8: TCR of SEQ ID NOs 515 and 516 (TCR, V domains shown)
Valpha: KQEVTQIPAALSVPEGENLVLNCSFTDSAIYNLQWFRQDPGKGLTSLLLIQSSQREQTSGRLNASLDKSSGRSTLYIAASQPGDSATYLCAVVSNNDMRFGAGTRLTVKP
Vbeta: NAGVTQTPKFQVLKTGQSMTLQCAQDMNHEYMSWYRQDPGMGLRLIHYSVGAGITDQGEVPNGYNVSRSTTEDFPLRLLSAAPSQTSVYFCASSLHSPVQGDYGYTFGSGTRLTVV
As for B8, the binding result with RLN1 peptide on HLA [3] is recorded as “recognises”.

B9: TCR of SEQ ID NOs 537 and 538 (TCR, V domains shown)
Valpha: KQEVTQIPAALSVPEGENLVLNCSFTDSAIYNLQWFRQDPGKGLTSLLLIQSSQREQTSGRLNASLDKSSGRSTLYIAASQPGDSATYLCAVGGYDKVIFGPGTSLSVIP
Vbeta: NAGVTQTPKFQVLKTGQSMTLQCAQDMNHEYMSWYRQDPGMGLRLIHYSVGAGITDQGEVPNGYNVSRSTTEDFPLRLLSAAPSQTSVYFCASRLGQFGQAFFGQGTRLTVV
With B9, the binding result in the experiment with SAGE1 peptide on HLA [4] is given as “recognises”.

B10: TCR of SEQ ID NOs 491 and 492 (TCR, V domains shown)
Valpha: KQEVTQIPAALSVPEGENLVLNCSFTDSAIYNLQWFRQDPGKGLTSLLLIQSSQREQTSGRLNASLDKSSGRSTLYIAASQPGDSATYLCAVSNSGGYQKVTFGTGTKLQVIP
Vbeta: NAGVTQTPKFQVLKTGQSMTLQCAQDMNHEYMSWYRQDPGMGLRLIHYSVGAGITDQGEVPDGYNVSRSTTEDFPLRLLSAAPSQTSVYFCASSYSTGSYEQYFGPGTRLTVT
Turning to B10, the binding result with PAGE5 peptide on HLA is “recognises”.

B11: TCR of SEQ ID NOs 535 and 536 (TCR, V domains shown)
Valpha: KQEVTQIPAALSVPEGENLVLNCSFTDSAIYNLQWFRQDPGKGLTSLLLIQSSQREQTSGRLNASLDKSSGRSTLYIAASQPGDSATYLCAVGGYQKVTFGTGTKLQVIP
Vbeta: NAGVTQTPKFRVLKTGQSMTLLCAQDMNHNYMYWYRQDPGMGLKLIYYSVGAGITDKGEVPNGYNVSRSTTEDFPLRLELAAPSQTSVYFCASRVDTLGEAFFGQGTRLTVV
As for B11, the binding result in the experiment with SAGE1 peptide on HLA [4] is listed as “recognises”.

B12: TCR of SEQ ID NOs 517 and 518 (TCR, V domains shown)
Valpha: KQEVTQIPAALSVPEGENLVLNCSFTDSAIYNLQWFRQDPGKGLTSLLLIQSSQREQTSGRLNASLDKSSGRSTLYIAASQPGDSATYLCAPGGYQKVTFGTGTKLQVIP
Vbeta: NAGVTQTPKFQVLKTGQSMTLQCAQDMNHEYMSWYRQDPGMGLRLIHYSVGAGITDQGEVPNGYNVSRSTTEDFPLRLLSAAPSQTSVYFCASRRDPLGGYTFGSGTRLTVV
With B12, the binding result in the experiment with RLN1 peptide on HLA [3] is listed as “recognises”.

B13: TCR of SEQ ID NOs 495 and 496 (TCR, V domains shown)
Valpha: KQEVTQIPAALSVPEGENLVLNCSFTDSAIYNLQWFRQDPGKGLTSLLLIQSSQREQTSGRLNASLDKSSGRSTLYIAASQPGDSATYLCAVGNSGGYQKVTFGTGTKLQVIP
Vbeta: NAGVTQTPKFQVLKTGQSMTLQCAQDMNHEYMSWYRQDPGMGLRLIHYSVGAGITDQGEVPNGYNVSRSTTEDFPLRLLSAAPSQTSVYFCASSYSTGSYGYTFGSGTRLTVV
On to B13, for which, in the experiment with PAGE5 peptide on HLA, the binding result is given as “recognises”.

B14: TCR of SEQ ID NOs 533 and 534 (TCR, V domains shown)
Valpha: KQEVTQIPAALSVPEGENLVLNCSFTDSAIYNLQWFRQDPGKGLTSLLLIQSSQREQTSGRLNASLDKSSGRSTLYIAASQPGDSATYLCAVSGYSTLTFGKGTMLLVSP
Vbeta: NAGVTQTPKFQVLKTGQSMTLQCAQDMNHEYMSWYRQDPGMGLRLIHYSVGAGITDQGEVPNGYNVSRSTTEDFPLRLLSAAPSQTSVYFCASSEGPFSEAFFGQGTRLTVV
In the case of B14, in the experiment with SAGE1 peptide on HLA [4], the binding result is recorded as “recognises”.

B15: TCR of SEQ ID NOs 519 and 520 (TCR, V domains shown)
Valpha: KQEVTQIPAALSVPEGENLALNCSFTDSAIYNLQWFRQDPGKGLTSLLLIQSSQREQTSGRLNASLDKSSGRSTLYIAASQPGDSATYLCAVNAGGTSYGKLTFGQGTILTVHP
Vbeta: NAGVTQTPKFQVLKTGQSMTLQCAQDMNHNSMYWYRQDPGMGLRLIYYSASEGTTDKGEVPNGYNVSRLNKREFSLRLESAAPSQTSVYFCASSYWREYYEQYFGPGTRLTVT
With B15, in the experiment with RLN1 peptide on HLA [3], the binding result is “recognises”.

B16: TCR of SEQ ID NOs 489 and 490 (TCR, V domains shown)
Valpha: KQEVTQIPAALSVPEGENLVLNCSFTDSAIYNLQWFRQDPGKGLTSLLLIQSSQREQTSGRLNASLDKSSGRSTLYIAASQPGDSATYLCAVRGDYKLSFGAGTTVTVRA
Vbeta: NAGVTQTPKFQVLKTGQSMTLQCAQDMNHNSMYWYRQDPGMGLRLIYYSASEGTTDKGEVPNGYNVSRLNKREFSLRLESAAPSQTSVYFCASSDPLGGLYGYTFGSGTRLTVV
As to B16, the binding result with PAGE2 peptide on HLA is recorded as “recognises”.

B17: TCR of SEQ ID NOs 545 and 546 (TCR, V domains shown)
Valpha: KQEVTQIPAALSVPEGENLVLNCSFTDSAIYNLQWFRQDPGKGLTSLLLIQSSQREQTSGRLNASLDKSSGRSTLYIAASQPGDSATYLCAVRDDYKLSFGAGTTVTVRA
Vbeta: NAGVTQTPKFRVLKTGQSMTLLCAQDMNHEYMYWYRQDPGMGLRLIHYSVGEGTTAKGEVPDGYNVSRLKKQNFLLGLESAAPSQTSVYFCASSYGPGQIYGYTFGSGTRLTVV
On to B17, for which, in the experiment with SAGE1 peptide on HLA [5], the binding result was “recognises”.

B18: TCR of SEQ ID NOs 541 and 542 (TCR, V domains shown)
Valpha: KQEVTQIPAALSVPEGENLVLNCSFTDSAIYNLQWFRQDPGKGLTSLLLIQSSQREQTSGRLNASLDKSSGRSTLYIAASQPGDSATYLCAVDSWGKLQFGAGTQVVVTP
Vbeta: NAGVTQTPKFQVLKTGQSMTLQCAQDMNHEYMSWYRQDPGMGLRLIHYSVGAGITDQGEVPNGYNVSRSTTEDFPLRLLSAAPSQTSVYFCASSSLGLGDYGYTFGSGTRLTVV
For the molecule B18, in the experiment with SAGE1 peptide on HLA [1], the binding result is “recognises”.

B19: TCR of SEQ ID NOs 543 and 544 (TCR, V domains shown)
Valpha: KQEVTQIPAALSVPEGENLVLNCSFTDSAIYNLQWFRQDPGKGLTSLLLIQSSQREQTSGRLNASLDKSSGRSTLYIAASQPGDSATYLCAVGDDYKLSFGAGTTVTVRA
Vbeta: NAGVTQTPKFQVLKTGQSMTLQCAQDMNHNSMYWYRQDPGMGLRLIYYSASEGTTDKGEVPNGYNVSRLNKREFSLRLESAAPSQTSVYFCASSEGWGGRTEAFFGQGTRLTVV
In the case of B19, the binding result in the experiment with SAGE1 peptide on HLA [1] is on record as “recognises”.

B20: TCR of SEQ ID NOs 529 and 530 (TCR, V domains shown)
Valpha: KQEVTQIPAALSVPEGENLVLNCSFTDSAIYNLQWFRQDPGKGLTSLLLIQSSQREQTSGRLNASLDKSSGRSTLYIAASQPGDSATYLCAVRPSTDSWGKLQFGAGTQVVVTP
Vbeta: NAGVTQTPKFQVLKTGQSMTLQCAQDMNHEYMSWYRQDPGMGLRLIHYSVGAGITDQGEVPNGYNVSRSTTEDFPLRLLSAAPSQTSVYFCASSPTGYYGYTFGSGTRLTVV
For B20, in the experiment with RLN1 peptide on HLA [2], the binding result is given as “recognises”.
